Starred links: 1 amine or outer side, 2 acyl side, 3 side chain; linkers in the order of their positions; H or OH if unused. Non-standard residues stand in square brackets, D forms with d. Groups on a side chain read outwards from the residue. No end group written: not given here. *: point of attachment. C20 diacid = O=C(O)CCCCCCCCCCCCCCCCCCC(=O)*; γGlu = O=C(O)[C@H](CCC(=O)[*:2])N[*:1]; εLys = N[C@@H](CCCCN[*:1])C(=O)[*:2]; AEEA = NCCOCCOCC(=O)O; Aib = CC(C)(N)C(=O)O
Columns and labels:
Assay in all cases: cell-based or functional assay
[1] = molecular target: GLP-1 receptor (human (printed as hGLP1R), UniProt P43220 24-463)
[2] = molecular target: T1, GIP receptor (human (printed as hGIPR), UniProt P48546 22-466)
T1 sequence (looked up): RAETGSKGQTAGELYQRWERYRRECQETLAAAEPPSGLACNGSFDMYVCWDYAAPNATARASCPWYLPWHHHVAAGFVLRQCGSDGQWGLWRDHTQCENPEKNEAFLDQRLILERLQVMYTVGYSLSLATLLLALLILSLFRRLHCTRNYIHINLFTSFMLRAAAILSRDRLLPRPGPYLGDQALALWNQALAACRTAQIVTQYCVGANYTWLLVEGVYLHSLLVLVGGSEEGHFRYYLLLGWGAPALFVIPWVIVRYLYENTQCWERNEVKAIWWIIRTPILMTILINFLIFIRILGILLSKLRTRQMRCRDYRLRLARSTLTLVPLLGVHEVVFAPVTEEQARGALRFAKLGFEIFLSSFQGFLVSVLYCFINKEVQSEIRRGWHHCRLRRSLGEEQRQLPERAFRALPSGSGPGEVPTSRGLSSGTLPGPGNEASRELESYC

[3] = molecular target: T2, NPY2 receptor (human (printed as hNPY2R), UniProt P49146 1-381)
T2 sequence (looked up): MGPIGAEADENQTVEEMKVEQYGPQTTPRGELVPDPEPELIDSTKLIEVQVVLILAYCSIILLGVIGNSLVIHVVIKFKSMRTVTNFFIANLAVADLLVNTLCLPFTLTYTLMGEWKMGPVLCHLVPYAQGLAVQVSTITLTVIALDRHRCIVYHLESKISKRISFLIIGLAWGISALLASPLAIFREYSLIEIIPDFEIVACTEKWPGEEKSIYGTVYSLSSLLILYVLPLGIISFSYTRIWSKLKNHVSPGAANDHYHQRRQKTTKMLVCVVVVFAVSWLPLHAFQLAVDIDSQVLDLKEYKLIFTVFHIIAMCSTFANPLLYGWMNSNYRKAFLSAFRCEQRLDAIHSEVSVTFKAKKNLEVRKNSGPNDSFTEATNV

Y[Aib]EGTFTSDYSI[Aib]LEKQAQ[Aib]AFVEWLIK([AEEA-AEEA-γGlu-γGlu-γGlu-γGlu-C20 diacid])GGPSEPASLRHYYNWLTRQRY-NH2 (also: TFA salt) [Compound 226] was tested, and the “EC50 hGLP1R 0.5% hP (CreLuc)” value [1] was 0.24 nM, the “EC50 hGLP1R 100% hP (CreLuc)” value [1] was 7.6 nM and the “EC50 hGIPR 0.5% hP (CreLuc)” value [2] was 0.43 nM. For the same binder, the “EC50 hGIPR 100% hP (CreLuc)” value [2] was 2.6 nM, the “EC50 hNPY2R 0.5% hP (CreLuc)” value [3] was 11.4 nM and the “EC50 hNPY2R 100% hP (CreLuc)” value [3] was 46.2 nM.

With Y[Aib]EGTFTSDYSI[Aib]LEKQAQ[Aib]AFVEWLIK([γGlu-γGlu-γGlu-γGlu-γGlu-γGlu-C20 diacid])GGPSSGASLRHYYNWLTRQRY-NH2 (also: TFA salt) [Compound 235] the “EC50 hGLP1R 0.5% hP (CreLuc)” value [1] was 0.12 nM, the “EC50 hGLP1R 100% hP (CreLuc)” value [1] was 4.64 nM and the “EC50 hGIPR 0.5% hP (CreLuc)” value [2] was 0.34 nM. The “EC50 hGIPR 100% hP (CreLuc)” value [2] was 2.81 nM, the “EC50 hNPY2R 0.5% hP (CreLuc)” value [3] was 13.9 nM and the “EC50 hNPY2R 100% hP (CreLuc)” value [3] was 77.7 nM.

For Y[Aib]EGTFTSDYSI[Aib]LEKQAQ[Aib]AFVQWLIK([γGlu-γGlu-γGlu-γGlu-γGlu-γGlu-C20 diacid])GGPSEGASLRHYYNWLTRQRY-NH2 (also: TFA salt) [Compound 223], the “EC50 hGLP1R 0.5% hP (CreLuc)” value [1] was 0.18 nM, the “EC50 hGLP1R 100% hP (CreLuc)” value [1] was 4.39 nM and the “EC50 hGIPR 0.5% hP (CreLuc)” value [2] was 0.39 nM. For the same binder, the “EC50 hGIPR 100% hP (CreLuc)” value [2] was 3.16 nM, the “EC50 hNPY2R 0.5% hP (CreLuc)” value [3] was 13.2 nM and the “EC50 hNPY2R 100% hP (CreLuc)” value [3] was 57.5 nM.

Y[Aib]EGTFTSDYSI[Aib]LEKQAQ[Aib]AFVEWLIK([εLys-γGlu-γGlu-γGlu-γGlu-γGlu-γGlu-γGlu-C20 diacid])GGPSSGASLRHYYNWLTRQRY-NH2 (also: TFA salt) [Compound 225] was tested, and the “EC50 hGLP1R 0.5% hP (CreLuc)” value [1] was 0.12 nM, the “EC50 hGLP1R 100% hP (CreLuc)” value [1] was 1.93 nM and the “EC50 hGIPR 0.5% hP (CreLuc)” value [2] was 0.28 nM. The “EC50 hGIPR 100% hP (CreLuc)” value [2] was 1.23 nM, the “EC50 hNPY2R 0.5% hP (CreLuc)” value [3] was 14.9 nM and the “EC50 hNPY2R 100% hP (CreLuc)” value [3] was 50.2 nM.

Y[Aib]EGTFTSDYSI[Aib]LEKQAQ[Aib]AFIEWLIK([AEEA-AEEA-γGlu-γGlu-γGlu-γGlu-C20 diacid])GGPSEGASLRHYYNWLTRQRY-NH2 (also: TFA salt) [Compound 231] was tested, and the “EC50 hGLP1R 0.5% hP (CreLuc)” value [1] was 0.14 nM, the “EC50 hGLP1R 100% hP (CreLuc)” value [1] was 3.28 nM and the “EC50 hGIPR 0.5% hP (CreLuc)” value [2] was 0.33 nM. For the same binder, the “EC50 hGIPR 100% hP (CreLuc)” value [2] was 1.43 nM, the “EC50 hNPY2R 0.5% hP (CreLuc)” value [3] was 19.2 nM and the “EC50 hNPY2R 100% hP (CreLuc)” value [3] was 53 nM.

B1: Compound 220 (peptide)
peptide: YXEGTFTSDYSIXLEKQAQXAFVQWLIKGGPSEGASLRHYYNWLTRQRY
modifications: Aib at 2, 13, 20; K28 side chain carries C20DA-gGlu-gGlu-gGlu-gGlu-gGlu-gGlu-eLys; C-terminal amide
For B1, the “EC50 hGLP1R 0.5% hP (CreLuc)” value [1] was 0.17 nM, the “EC50 hGLP1R 100% hP (CreLuc)” value [1] was 5.28 nM and the “EC50 hGIPR 0.5% hP (CreLuc)” value [2] was 0.29 nM. The “EC50 hGIPR 100% hP (CreLuc)” value [2] was 1.83 nM, the “EC50 hNPY2R 0.5% hP (CreLuc)” value [3] was 10.2 nM and the “EC50 hNPY2R 100% hP (CreLuc)” value [3] was 42.6 nM.

B2: Compound 237 (peptide)
peptide: YXEGTFTSDYSIXLEKQAQXAFVEWLIKGGPSEGESLRHYYNWLTRQRY
modifications: Aib at 2, 13, 20; K28 side chain carries C20DA-gGlu-gGlu-gGlu-gGlu-gGlu-gGlu-eLys; C-terminal amide
In the case of B2, the “EC50 hGLP1R 0.5% hP (CreLuc)” value [1] is reported as 0.26 nM, the “EC50 hGLP1R 100% hP (CreLuc)” value [1] is reported as 3.11 nM and the “EC50 hGIPR 0.5% hP (CreLuc)” value [2] is reported as 0.1 nM. The “EC50 hGIPR 100% hP (CreLuc)” value [2] was 1.17 nM, the “EC50 hNPY2R 0.5% hP (CreLuc)” value [3] was 18 nM and the “EC50 hNPY2R 100% hP (CreLuc)” value [3] was 45.5 nM.

B3: Compound 234 (peptide)
peptide: YXEGTFTSDLSIXLEKQAQXAFVEWLIKGGPSEGASLRHYYNWLTRQRY
modifications: Aib at 2, 13, 20; K28 side chain carries C20DA-gGlu-gGlu-gGlu-gGlu-Glu-gGlu-eLys (so in the source); C-terminal amide
With B3 the “EC50 hGLP1R 0.5% hP (CreLuc)” value [1] was 0.35 nM, the “EC50 hGLP1R 100% hP (CreLuc)” value [1] was 2.66 nM and the “EC50 hGIPR 0.5% hP (CreLuc)” value [2] was 0.74 nM. For the same binder, the “EC50 hGIPR 100% hP (CreLuc)” value [2] was 3.27 nM, the “EC50 hNPY2R 0.5% hP (CreLuc)” value [3] was 25.1 nM and the “EC50 hNPY2R 100% hP (CreLuc)” value [3] was 48.1 nM.

B4: Compound 238 (peptide)
peptide: YXEGTFTSDYSIXLEKQAQXAFVEWLIKGGPSSGASLRHYYNWLTRQRY
modifications: Aib at 2, 13, 20; K28 side chain carries C20DA-gGlu-gGlu-gGlu-gGlu-gGlu; C-terminal amide
With B4 the “EC50 hGLP1R 0.5% hP (CreLuc)” value [1] was 0.1 nM, the “EC50 hGLP1R 100% hP (CreLuc)” value [1] was 2.55 nM and the “EC50 hGIPR 0.5% hP (CreLuc)” value [2] was 0.52 nM. The “EC50 hGIPR 100% hP (CreLuc)” value [2] was 1.59 nM, the “EC50 hNPY2R 0.5% hP (CreLuc)” value [3] was 11.6 nM and the “EC50 hNPY2R 100% hP (CreLuc)” value [3] was 49.4 nM.

B5: Compound 229 (peptide)
peptide: YXEGTFTSDYSIXLEKQAQXAFVEWLIKGGPSSGASLRHYYNWLTRQRY
modifications: Aib at 2, 13, 20; K28 side chain carries C20DA-gGlu-gGlu-gGlu-gGlu-gGlu-OEG-OEG; C-terminal amide
B5 was tested, and the “EC50 hGLP1R 0.5% hP (CreLuc)” value [1] was 0.1 nM, the “EC50 hGLP1R 100% hP (CreLuc)” value [1] was 3.31 nM and the “EC50 hGIPR 0.5% hP (CreLuc)” value [2] was 0.22 nM. For the same binder, the “EC50 hGIPR 100% hP (CreLuc)” value [2] was 1.42 nM, the “EC50 hNPY2R 0.5% hP (CreLuc)” value [3] was 10.8 nM and the “EC50 hNPY2R 100% hP (CreLuc)” value [3] was 27.2 nM.

Reference: patent US20240247080A1, “GLP1/GIP/NPY2 RECEPTOR TRIPLE AGONISTS” (Boehringer Ingelheim International GmbH, priority 2022, published 2024)
